From patent publication US7790697B2, “Compositions and methods for inhibiting the synthesis or expression of MMP-1” (Trustees of Dartmouth College, priority 2004, dated 2010)

What was measured:
Format in all cases: cell-based, human
MT1-MMP (MMP-14) mRNA = test: Specificity qRT-PCR, MT1-MMP (MMP-14) mRNA in stable MDA-231 cells; details: stable MDA-231 cell lines, 24 hour serum-free; group average ± S.D.; P=0.4 vs empty vector
Description: (§1) RNA Isolation and Real-Time RT-PCR. […] Real-Time PCR Primer Sequences. […] ID NO:7; MMP-1 reverse [NT] ID NO:8; MMP-2 forward [NT] ID NO:9; MMP-2 reverse [NT] ID NO:10; MMP-9 forward [NT] ID NO:11; MMP-9 reverse [NT] ID NO:12; MMP-13 forward [NT], SEQ ID NO:13; MMP-13 reverse [NT] ID NO:14; MMP-14 forward [NT] ID NO:15; MMP-14 reverse [NT] ID NO:16; GAPDH forward [NT] ID NO:17; GAPDH reverse [NT] ID NO:18; eGFP forward [NT] ID NO:19; eGFP reverse [NT] ID NO:20. Real-Time PCR Standards.

MMP-1 mRNA = MMP-1 mRNA by qRT-PCR in stably transfected MDA-231 cell lines; details: for Copies of MMP-1 mRNA per pg GAPDH mRNA: average ± S.D.
Experimental: Transfection of NIH/3T3 and MDA-231 Cells. NIH/3T3 cells were transiently transfected with LIPOFECTAMINE™ 2000 (INVITROGEN™, Carlsbad, Calif.) along with 0.5 μg peGFP, 0.5 μg pCMV-MMP-1, and 2 μg PSUPER™-MMP-1 shRNA or PSUPER™ with no insert. Transfection efficiency was monitored using eGFP signal. Total cellular RNA was harvested 48 hours after transfection and analyzed for MMP-1 mRNA by real-time RT-PCR. MDA-231 cells were stably transfected in triplicate with LIPOFECTAMINE™ 2000 (INVITROGEN™, Carlsbad, Calif.) and 2 μg of the PSUPER™.Retro.Neo.GFP plasmid containing the MMP-1 shRNA, the scrambled sequence or just the empty vector. Stable cell lines were selected by growth in the presence of 1 mg/mL G418 (STRATAGENE®, La Jolla, Calif.). Individual, stable cell lines were isolated with cloning disks according to the manufacturer's instructions (PGC Scientifics, Frederick, Md.).
RNA Isolation and Real-Time RT-PCR.
After initial neomycin selection and isolation of individual stable cell lines, MMP-1 mRNA and protein levels were determined using quantitative RT-PCR (qRT-PCR) and ELISA. MMP-1 mRNA levels were measured in RNA harvested from stably transfected cell lines after a 24 hour incubation in serum-free medium and were normalized to GAPDH mRNA levels. MMP-1 protein levels were measured in the serum-free media of the cell lines after 24 hours of incubation and were normalized to total protein content of the cells. The ELISA measured total (active and zymogen) forms of MMP-1 protein. […] To control for differences introduced into the cell lines during selection, these three individual cell lines for each group were pooled, and all subsequent experiments were performed on pooled cells.

MMP-13 mRNA = test: Specificity qRT-PCR, MMP-13 mRNA in stable MDA-231 cells; details: stable MDA-231 cell lines, 24 hour serum-free; group average ± S.D.; P=0.3 vs empty vector
Description: as §1

MMP-9 mRNA = test: Specificity qRT-PCR, MMP-9 mRNA in stable MDA-231 cells; details: stable MDA-231 cell lines, 24 hour serum-free; group average ± S.D.; P=0.1 vs empty vector
Description: as §1

MMP-1 protein = test: Western blot of MMP-1 protein in culture medium; details: MDA-231 cells producing the shRNA; 24 hours
Experimental: Western Blot Analysis. MDA-231 cells were cultured in 1 mL serum-free DMEM/F12 medium in six-well plates in the presence or absence of a collagen gel, with or without aprotinin (50 U/mL; Sigma, St. Louis, Mo.). After 24 hours, medium was harvested, proteins precipitated with cold 10% trichloroacetic acid, and resuspended in 50 μL SDS loading buffer (PROMEGA®, Madison, Wis.). Following SDS-PAGE and transfer to a PVDF membrane (IMMOBILON™-P; MILLIPORE™, Bedford, Mass.), the membrane was incubated in a 5% milk, Tris-buffered saline solution with 0.1% TWEEN™ (milk TBST) for 1 hour. The membrane was probed with a MMP-1 polyclonal antibody (CHEMICON®, Temecula, Calif.) diluted 1:5000 in milk TBST overnight at 4° C. The membrane was washed three times with TBST, and a 1:2000 dilution of goat anti-rabbit horseradish peroxidase (HRP) conjugated antibody (CELL SIGNALING TECHNOLOGY®, Beverly, Mass.) in milk TBST was added for 60 minutes. The blot was washed three times with TBST, and HRP activity was detected with the WESTERN LIGHTNING® chemiluminescence reagent according to the manufacturer's instructions (PERKINELMER®, Boston, Mass.).
The three MMPs primarily responsible for degrading type 1 collagen are MMP-1, MMP-13, and the membrane bound MT1-MMP (Stamenkovic (2003) J. Pathol. 200:448-64). […]

MMP-2 mRNA = test: Specificity qRT-PCR, MMP-2 mRNA in stable MDA-231 cells; details: stable MDA-231 cell lines, 24 hour serum-free; group average ± S.D.; P=0.3 vs empty vector
Description: as §1

B1: MMP-1 shRNA: Vector-expressed small hairpin RNA, SEQ ID NO:1 (sense) and SEQ ID NO:2 (antisense), specific to bases 234-252 of MMP-1 mRNA (nucleic acid)
sense: GATCCCCACCAGATGCTGAAACCCTGTTCAAGAGACAGGGTTTCAGCATCTGGTTTTTTGGAAA
antisense: AGCTTTTCCAAAAAACCAGATGCTGAAACCCTGTCTCTTGAACAGGGTTTCAGCATCTGGTGGG
modifications: the letters are possibly those of the target site
MT1-MMP mRNA level (MT1-MMP (MMP-14) mRNA): 107000 ± 46000 copies of the target gene/pg GAPDH | Copies of MMP-1 mRNA per pg GAPDH mRNA (MMP-1 mRNA; Group of cell lines D1, Y2, Y7, P=0.004 vs empty vector): 6200 ± 3200 copies per pg GAPDH mRNA | Copies of MMP-1 mRNA per pg GAPDH mRNA (MMP-1 mRNA; MDA-231 cell line D1): 8900 ± 3600 copies per pg GAPDH mRNA | Copies of MMP-1 mRNA per pg GAPDH mRNA (MMP-1 mRNA; MDA-231 cell line Y2): 4600 ± 2500 copies per pg GAPDH mRNA | Copies of MMP-1 mRNA per pg GAPDH mRNA (MMP-1 mRNA; MDA-231 cell line Y7): 5000 ± 2400 copies per pg GAPDH mRNA | reduction in MMP-1 mRNA levels compared to empty vector cell lines (MMP-1 mRNA; three stable MDA-231 cell lines, 24 hour serum-free): greater than 90% | MMP-13 mRNA level (MMP-13 mRNA): 0.5 ± 0.2 copies of the target gene/pg GAPDH | MMP-9 mRNA level (MMP-9 mRNA): 197.3 ± 106 copies of the target gene/pg GAPDH | MMP-1 protein in medium (western blot) (MMP-1 protein): No detectable MMP-1 protein | MMP-2 mRNA level (MMP-2 mRNA): 8.8 ± 7.8 copies of the target gene/pg GAPDH
